Test results taken from the nanobody polyreactivity screen of Harvey et al. (2022).

Test: yeast display, Sf9 membrane polyspecificity reagent, FACS + sequencing; frameworks hold sequencing errors
Procedure, shortened: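 A synthetic nanobody library was expressed on Saccharomyces cerevisiae BJ5465 by galactose induction for 36–48 hours. The library was stained for 1 hour at 4 °C with 10% biotinylated, detergent-solubilized Sf9 membrane reagent and enriched with streptavidin microbeads before FACS. Low and high (top ~1%) gates were set on anti-HA fluorescence for expression and streptavidin fluorescence for reagent binding, and each polyreactivity label reflects the gate of origin.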

Sequence: QVQLVESGGGLVQAGGSLRLSCAASGSIFSINTMGWYRQPPGKERELVAAITRSGSGTYYADSVKGRFTISRDNAKNTVYLQMNSLKPEDTAVYYCAKPAGARLGYWGQGTQVTVSS
- polyreactivity (PSR sort gate): low polyreactivity

Sequence: QVQLVESGGGLVQAGGSLRLSCAASGSIFSIYAMEWYRQAPGKERELVAAITWGGGSTYYADSVKGRFTISRDNAKNTVYLQMNSLKPEDTAVYYCAADSLTWYGTYYYWGQGTQVTVSS
- polyreactivity (PSR sort gate): high polyreactivity

Sequence: QVQLVESGGGLVQAGGSLRLSCAASGSIFSIYAMGWYRQAPGKERELVAAINWIGTSTYYADSVKGRFTISRDNAKNTVYLQMNSLKPEDTAVYYCAAVSRRVSPYLSARDYCGQGTQVTVSS
- polyreactivity (PSR sort gate): high polyreactivity

Sequence: QVQLVESGGGLVQAGGSLRLSCAASGSIFSIYAMGWYRQAPGKERELVAAISSGGSTYADSVKGRFTISRDNAKNTVYLQMNSLKPEDTAVYYCAADRRGYRGYDYWGQGTQVTVSS
- polyreactivity (PSR sort gate): low polyreactivity

Sequence: QVQLVESGGGLVQAGGSLRLSCAASGSIFSIYAMGWYRQAPWKERELVAAITWGGGSTYYADSVKGRFTISRDNAKNTVYVQMNSLKPEDTAVYYCAADSLTWYGTYYYWGQGTQVTVSS
- polyreactivity (PSR sort gate): high polyreactivity

Sequence: QVQLVESGGGLVQAGGSLRLSCAASGSIFSKYTMGWSRQAPGKEWELVAVISDSGASTYYADSVKGRFTISRDNAKNTVYLEMNSLKPEDTAVYYCAAVYRGALTLYYWGQGTQVTVSS
- polyreactivity (PSR sort gate): high polyreactivity

Sequence: QVQLVESGGGLVQAGGSLRLSCAASGSIFSKYVMGWYRQAPGKERELVAAISWSGTRTYYADSVKGRFTISRDNAKNTVYLQMNSLKPEDTAVDYCAARRLYAGHQYDYWGQGTQVTVSS
- polyreactivity (PSR sort gate): high polyreactivity

Sequence: QVQLVESGGGLVQAGGSLRLSCAASGSIFSLYAMGWYRQAPGKEWELVAAISRGGSTNYADSVKGRFTISRDNAKNTVYLQMNSLKPEDTAVYYCNAGFGVRRKHITFYTWYDYWGQGTQVTVSS
- polyreactivity (PSR sort gate): low polyreactivity

Sequence: QVQLVESGGGLVQAGGSLRLSCAASGSIFSNNAMGWYRQAPGKERELVAAITRSGGNTYYADSVKGRFTISRDNAKNTVYLQMNSLKPEDTAVYYCNAVHLRKMYYWGQGTQVTVSS
- polyreactivity (PSR sort gate): high polyreactivity

Sequence: QVQLVESGGGLVQAGGSLRLSCAASGSIFSPNAMGWYRQAPGKERELVAGISWSGDGTYYADSVKGRFTISRDNAKNTVYLQMNSLKPEDTAVYYCAARFGRYSHRYYYWGQGTQVTVSS
- polyreactivity (PSR sort gate): high polyreactivity

Sequence: QVQLVESGGGLVQAGGSLRLSCAASGSIFSPNDMGWYRQAPGKERELVAAITSAGSTYYADSVKGRFTISRDNAKNTVYLQMNSLKPEDTAVYYCAATYISVTDYAYFPLWYGYWGQGTQVTVSS
- polyreactivity (PSR sort gate): low polyreactivity

Sequence: QVQLVESGGGLVQAGGSLRLSCAASGSIFSPYAMGWYRQAPGKERELVAAISRSGRTHYADSVKGRFTISRDNAKNTVYLQMNSLKPEDTAVYYCAAGVVYGYYYWGQGTQVTVSS
- polyreactivity (PSR sort gate): high polyreactivity

Sequence: QVQLVESGGGLVQAGGSLRLSCAASGSIFSPYDMGWYRQAPGKERELVASITWRRGNTYYADSVKGRFTISRDNAKNTVYLQMNSLKPEDTAVYYCAATRGAQTPQTRKKRGFDYWGQGTQVTVSS
- polyreactivity (PSR sort gate): low polyreactivity

Sequence: QVQLVESGGGLVQAGGSLRLSCAASGSIFSPYTMGWYRQAPGKEREFVAAIRWTTGSTYYADSVKGRFTISRDNAKNTVYLQMNSLKPEDTAVYYCAADPSYRSRLFRSYEYDYWGQGTQVTVSS
- polyreactivity (PSR sort gate): high polyreactivity

Sequence: QVQLVESGGGLVQAGGSLRLSCAASGSIFSRNAMGWYRQAPGKEREFVARISWSSTSTNYADSVKGRFTISRDNAKNTVYLQMISLKPEVTAVDYCSADFRGDRRFDYWGQGTQVTVSS
- polyreactivity (PSR sort gate): low polyreactivity

Sequence: QVQLVESGGGLVQAGGSLRLSCAASGSIFSRNAMGWYRQAPGKEREFVARISWSSTSTNYADSVKGRFTISRDNSKNTVFLLINSLKPEDTAVYYCAADFRGDRRFDYWGQGTQVTVSS
- polyreactivity (PSR sort gate): low polyreactivity

Sequence: QVQLVESGGGLVQAGGSLRLSCAASGSIFSRYAMGWYRQSPGKERELVAAISQRAGSTYYADSVKGRFTISRDNAKNTVYLQMNSLKPEDTAVYYCAARRRGRKERGEDYWGQGTQVTVSS
- polyreactivity (PSR sort gate): high polyreactivity

Sequence: QVQLVESGGGLVQAGGSLRLSCAASGSIFSSNAMGWYRQAPGKERELVAAIDYSGGRTYYADSVKGRFTISRDNAKNTVYLQMNSLKPEDTAVYYCAKLIPVHSRYDYWGQGTQVTVSS
- polyreactivity (PSR sort gate): low polyreactivity

Sequence: QVQLVESGGGLVQAGGSLRLSCAASGSIFSSNAMGWYRQAPGKERELVAAITGSDGSTYYADSVKGRFTISRDNAKNTVYLQMNSLKPEDTAVYYCAAVGRYYYFDGFYYWGQGTQVTVSS
- polyreactivity (PSR sort gate): low polyreactivity

Sequence: QVQLVESGGGLVQAGGSLRLSCAASGSIFSSNTMGWYRQAPGKERELVAAITSGGTTYADSVKGRFTISRDNAKNTVYLQMNSLKPEDTAVYYCAARYYIHRGYDYDYWGQGTQVTVSS
- polyreactivity (PSR sort gate): high polyreactivity

Sequence: QVQLVESGGGLVQAGGSLRLSCAASGSIFSSYAMGWYRPAPGKERELVAAITRTGGRTYYADSVKGRFTISRDNAKNTVYLQMNSLKPEDTAVYYCAAKQVSRGVAAYDYWGQGTQVTVSS
- polyreactivity (PSR sort gate): high polyreactivity

Sequence: QVQLVESGGGLVQAGGSLRLSCAASGSIFSSYAMGWYRQAPGKERELVAAITTRGDSTRYADSVKGRFTISRDNAKNTVYLQMNSLKPEHTAVYYCNARYRDPYWDSGYWGQGTQVTVSS
- polyreactivity (PSR sort gate): high polyreactivity

Sequence: QVQLVESGGGLVQAGGSLRLSCAASGSIFSSYAMGWYRQAPGKERELVASISSGGSTNYADSVKGRFTISRDNAKNTVYLQMNSLKPEDTAVYYCNVDLYNWRGDSTGYDYWGQGTQVTVSS
- polyreactivity (PSR sort gate): low polyreactivity

Sequence: QVQLVESGGGLVQAGGSLRLSCAASGSIFSSYTMGWYRPAPGKERELLAAISSTGSTYYADSVKGRFTISRDNAKNTVYLQMNSLKPEDTAVYYCAARGWYWQQYKGHTRYDYWGQGTQVTVSS
- polyreactivity (PSR sort gate): high polyreactivity

Sequence: QVQLVESGGGLVQAGGSLRLSCAASGSIFSTNAMGWYRQAPGKEWELVAVITGIGGITYYADSVKGRFTISRDNAKNTDYLQMNSLKPEDTAVYYCAADPISEFYWGVKDRYDYWGQGTQVTVSS
- polyreactivity (PSR sort gate): low polyreactivity

Sequence: QVQLVESGGGLVQAGGSLRLSCAASGSIFSTNGMGWYRQAPGKERELVAAISTGGRTYYADSVKGRFTISRDNAKNTVYLQMNSLKPEDTAVYYCAKRFGYRSTEILDYWGQGTQVTVSS
- polyreactivity (PSR sort gate): low polyreactivity

Sequence: QVQLVESGGGLVQAGGSLRLSCAASGSIFSTYAMGWSRQAPGKERELVAAINRSGGSTTYADSVKGRCTISRDNAKNTVYLQMNSLKPEDTAVYYCAKAFRGHYWGQGTQVSVSS
- polyreactivity (PSR sort gate): high polyreactivity

Sequence: QVQLVESGGGLVQAGGSLRLSCAASGSIFSTYAMGWYRQAPGKERELVAAITTSGGRTYYADSVKGRFTISRDNAKNTVYVQMNSLKPEETAVYYCNAVRGGRYGLDYWGQGTQVTVSS
- polyreactivity (PSR sort gate): high polyreactivity

Sequence: QVQLVESGGGLVQAGGSLRLSCAASGSIFSTYAMGWYRQAPGKERELVASINYSGGSTYYADSVKGRFTISRDNAKNTVYLQMNSLKPEDTAVYYCNTGPFVGFDYWGQGTQVTVSS
- polyreactivity (PSR sort gate): low polyreactivity

Sequence: QVQLVESGGGLVQAGGSLRLSCAASGSIFSTYTMGWYRQAPGKERELVAGISKSGGSTYYADSVKGRFTISRDNAKNTVYLQMNSLKPEDTAVYYCAAPVPKTDKLLRMYYWGQGTQVTVSS
- polyreactivity (PSR sort gate): high polyreactivity

Sequence: QVQLVESGGGLVQAGGSLRLSCAASGSIFSTYVMGWYRPAPGKERELVAAIRWRATSTFYADSVKGRFTISRDNAKNTVYLQMNSLKPEDTAVYYCNRYHRTSWRAKYDYWGQGTQVTVSS
- polyreactivity (PSR sort gate): high polyreactivity

Sequence: QVQLVESGGGLVQAGGSLRLSCAASGSIFSTYVMGWYRQAPGKERELVAAITVSVGSTYYADSVKGRFTISRDNAKNTVYLQMNSLKPEDTAVYYCAAYGGTGYPFDAYYHDYDYWGQGTQVSVSS
- polyreactivity (PSR sort gate): low polyreactivity

Sequence: QVQLVESGGGLVQAGGSLRLSCAASGSIFSVNAMGWYRQAPGKERELVASINFRGGRTYYADSVKGRFTISRDNAKNTVYLQMNSLKPEDTAVYYCAAVISQTDTGYGPSFRVYYWGQGTQVTVSS
- polyreactivity (PSR sort gate): high polyreactivity

Sequence: QVQLVESGGGLVQAGGSLRLSCAASGSIFSVYVMGWYRQAPGKERELVAAISWSDSDTYYADSVKGRFTISRDNAKNTVYLQMNSLKPEDTAVYYCAAETFDYADYIANGSGEYDYWGQGTQVTVSS
- polyreactivity (PSR sort gate): high polyreactivity

Sequence: QVQLVESGGGLVQAGGSLRLSCAASGSIFSWYAMGWYRQAPGKERELVAAISGITGSTYYADSVKGRFTISRDNAKNTVYLQMNSLKPEDTAVYYCRALAGYASGMDYWGQGTQVTVSS
- polyreactivity (PSR sort gate): high polyreactivity

Sequence: QVQLVESGGGLVQAGGSLRLSCAASGSIFSWYAMGWYRQAPGKERELVAAISNAGRTYYADSVKGRFTISRDNAKNTVYLQMNSLKPEDTAVYYCAAAGPRQGNYGGYEYWGQGTQVTVSS
- polyreactivity (PSR sort gate): high polyreactivity

Sequence: QVQLVESGGGLVQAGGSLRLSCAASGSIFSYDAMGWYRLAPGKERELVAVINSGGRTNYADSVKGRFTISRDNAKNTVYLQMNRLKPEDTAVYYCAAQGYFVDRAGRYDRGDYWGQGTQVTVSS
- polyreactivity (PSR sort gate): high polyreactivity

Sequence: QVQLVESGGGLVQAGGSLRLSCAASGSIFSYNAMGWSRQAPGNERELVARISYSGGSTYYADSVKGRFTISRDNAKNTVYLQMNSLKPEDTAVYYCAKRAYGWPYDYWGQGTQVTVSS
- polyreactivity (PSR sort gate): high polyreactivity

Sequence: QVQLVESGGGLVQAGGSLRLSCAASGSIFSYNVMGWYRPAPGKERELVAAITQSGTSTYYADSVKGRFTISRDNAKNTVYLQMNSLKPEDTAVYYCAVDWYSAYGGYYWSQYDYWGQGTQVTVSS
- polyreactivity (PSR sort gate): low polyreactivity

Sequence: QVQLVESGGGLVQAGGSLRLSCAASGSIFSYYAMGWSSQAPGKERELVAAISKRGASTYYADSVKGRFSISRDIAKNTVYLQMNSLKPEDTAVYYCAAYRQGSAYDYWGKGTQVTVSS
- polyreactivity (PSR sort gate): high polyreactivity

Sequence: QVQLVESGGGLVQAGGSLRLSCAASGSIFSYYAMGWYRQAPGKERELVAAINGGDSTNYADSVKGRFTISRDNAKNTVYLQMNSLKPEDTAVYYCAADNYDAALLFEYYYWGQGTQVTVSS
- polyreactivity (PSR sort gate): low polyreactivity

Sequence: QVQLVESGGGLVQAGGSLRLSCAASGSIFSYYAMGWYRQAPGKERELVAAISQSGGSTYYADSVKGRFTISRDNAKNTVYLQMNSLKPEDTAVYYCNAVARHTRSKYGSWGQGTQVTVSS
- polyreactivity (PSR sort gate): high polyreactivity

Sequence: QVQLVESGGGLVQAGGSLRLSCAASGSIFSYYAMGWYRQAPGKERELVAAISRSGVSTYYADSVKGRFTISRDNAKNTVYLQMNSLKPEDTAVYYCNAVFTWPRRKYGYDYWGQGTQVTVSS
- polyreactivity (PSR sort gate): high polyreactivity
